Test results published in patent US20210317200A1 (MABPROTEIN, published 2021).
No end group written: not given here.

B1: monoclonal antibody 8-4.1 (antibody, V domains shown)
VH: LSITCTVSGFSLTSYGVHWVRQPPGKGLEWLGVIWAGGSTNYNSALMSRLSISKDNSKSQVFLKMNSLQTDDTAMYYCARESSYDAMDYWGQGTSVTVSS
VL: DIVITQSPKSMSMSVGERVTLTCKASENVVTYVSWYQQKPEQSPKLMIYGASNRYTGVPDRFTGSGSATDFTLTISSVQAEDLADYHCGQGYSYPYTFGGGTKLEIK
B2: monoclonal antibody 9-10.2 (antibody, V domains shown)
VH: SLTCSFSGFSLSSSGMGVGWIRQPSGKGLEWLAHIWWDDDKNYNPGLKSRLTISKDTSKNQVFLKIANVDTADAATYYCTRTRTYSNFGGGMAYWGQGTSVTVSS
VL: LGDQASISCRSSQSIAHSNGYTYLEWYLQTPGQSPKLLIYKVSNRFSGVPDRFSGSGSGTDFTLKISRVEAEDLGVYYCVQGSHVPLTFGAGTKLELK

Key:
[1] = molecular target: T1, neoepitope peptide (positions 37 to 44, C-terminal Cys) with positions 41 to 44 substituted with alanine (human, not fully specified); assay: ELISA on BSA-crosslinked peptide, neoepitope fine analysis; row YFGKAAAA
T1 construct: Member of the successive alanine series, derived from the description of the series; Positions are counted on IL-18; also called peptide having the presence of lysine at position 40
T1 peptide: YFGKAAAAC

[2] = molecular target: T2, peptide K44A (alanine variant of …) (human, not fully specified); assay: ELISA on BSA-crosslinked peptide, alanine scanning; row YFGKLESA
T2 construct: Position is counted on IL-18
T2 peptide: YFGKLESAC

[3] = molecular target: T3, peptide G39A (alanine variant of …) (human, not fully specified); assay: ELISA on BSA-crosslinked peptide, alanine scanning; row [..]
T3 construct: Position is counted on IL-18
T3 peptide: YFAKLESKC

[4] = molecular target: T4, neoepitope peptide (positions 37 to 44, C-terminal Cys) with positions 42 to 44 substituted with alanine (human, not fully specified); assay: ELISA on BSA-crosslinked peptide, neoepitope fine analysis; row YFGKLAAA
T4 construct: Member of the successive alanine series, derived from the description of the series; Positions are counted on IL-18; also called peptide having the presence of lysine at position 40
T4 peptide: YFGKLAAAC

[5] = molecular target: T5, peptide Y37A (alanine variant of …) (human, not fully specified); assay: ELISA on BSA-crosslinked peptide, alanine scanning; row AFGKLESK
T5 construct: Position is counted on IL-18
T5 peptide: AFGKLESKC

[6] = molecular target: peptide K40A (alanine variant of …) (human, C-terminal Cys crosslinked to BSA in ELISA; thiol-coupled to sensor chip CM5 in SPR); assay: ELISA on BSA-crosslinked peptide, alanine scanning; row YFGALESK
[7] = molecular target: T6, peptide E42A (alanine variant of …) (human, not fully specified); assay: ELISA on BSA-crosslinked peptide, alanine scanning; row YFGKLASK
T6 construct: Position is counted on IL-18
T6 peptide: YFGKLASKC

[8] = molecular target: T2, peptide K44A (alanine variant of …); assay: ELISA on BSA-crosslinked peptide (alanine scanning)
[9] = molecular target: T7, peptide S43A (alanine variant of …) (human, not fully specified); assay: as above
T7 construct: Position is counted on IL-18
T7 peptide: YFGKLEAKC

[10] = molecular target: T8, peptide F38A (alanine variant of …) (human, not fully specified); assay: as above
T8 construct: Position is counted on IL-18
T8 peptide: YAGKLESKC

[11] = molecular target: T9, neoepitope peptide (positions 37 to 44, C-terminal Cys) with positions 40 to 44 substituted with alanine (human, not fully specified); assay: ELISA on BSA-crosslinked peptide, neoepitope fine analysis; row YFGAAAAA
T9 peptide: YFGAAAAAC

[12] = molecular target: T8, peptide F38A (alanine variant of …); assay: ELISA on BSA-crosslinked peptide, alanine scanning; row YAGKLESK
[13] = molecular target: T10, neoepitope peptide IL-18^37-44 with C-terminal cysteine (YFGKLESKC) (human, not fully specified); assay: ELISA on BSA-crosslinked peptide, neoepitope fine analysis; row YFGKLESK (reference set as 100)
T10 construct: also called IL-18^37-44 peptide; wild-type peptide
T10 peptide: YFGKLESKC

[14] = molecular target: T11, neoepitope peptide (positions 37 to 44, C-terminal Cys) with positions 43 to 44 substituted with alanine (human, not fully specified); assay: ELISA on BSA-crosslinked peptide (neoepitope fine analysis)
T11 construct: Member of the successive alanine series, derived from the description of the series; Positions are counted on IL-18; also called peptide having the presence of lysine at position 40
T11 peptide: YFGKLEAAC

[15] = molecular target: T1, neoepitope peptide (positions 37 to 44, …); assay: as above
[16] = molecular target: T4, neoepitope peptide (positions 37 to 44, …); assay: as above
[17] = molecular target: T7, peptide S43A (alanine variant of …); assay: ELISA on BSA-crosslinked peptide, alanine scanning; row YFGKLEAK
[18] = molecular target: T10, neoepitope peptide IL-18^37-44 with …; assay: ELISA on BSA-crosslinked peptide, alanine scanning; row YFGKLESK (reference set as 100)
[19] = molecular target: T2, peptide K44A (alanine variant of …); assay: ELISA on BSA-crosslinked peptide, neoepitope fine analysis; row YFGKLESA
[20] = molecular target: T12, activated IL-18 protein (IL-18^37-193) (human, UniProt Q14116 37-193); assay: cell-based or functional assay
T12 sequence (looked up): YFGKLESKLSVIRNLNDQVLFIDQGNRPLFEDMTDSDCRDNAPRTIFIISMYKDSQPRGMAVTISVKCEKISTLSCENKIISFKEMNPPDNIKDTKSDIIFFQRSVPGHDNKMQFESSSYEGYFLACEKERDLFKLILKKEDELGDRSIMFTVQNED

[21] = molecular target: T11, neoepitope peptide (positions 37 to 44, …); assay: ELISA on BSA-crosslinked peptide, neoepitope fine analysis; row YFGKLEAA
[22] = molecular target: T13, peptide L41A (alanine variant of …) (human, not fully specified); assay: ELISA on BSA-crosslinked peptide, alanine scanning; row YFGKAESK
T13 construct: Position is counted on IL-18
T13 peptide: YFGKAESKC

[23] = molecular target: T10, neoepitope peptide IL-18^37-44 with …; assay: SPR, Biacore X100, peptide thiol-coupled to CM5, antibody 0.4-250 nM, single-cycle, bivalent analysis

Binder | ELISA absorbance relative to wild-type peptide (= 100) [1] | ELISA absorbance relative to wild-type peptide (= 100) [2] | ELISA absorbance relative to wild-type peptide (= 100) [3] | ELISA absorbance relative to wild-type peptide (= 100) [4] | ELISA absorbance relative to wild-type peptide (= 100) [5] | ELISA absorbance relative to wild-type peptide (= 100) [6] | ELISA absorbance relative to wild-type peptide (= 100) [7] | percent binding relative to the wild-type peptide [8] | percent binding relative to the wild-type peptide [9] | percent binding relative to the wild-type peptide [10] | ELISA absorbance relative to wild-type peptide (= 100) [11] | ELISA absorbance relative to wild-type peptide (= 100) [12] | ELISA absorbance relative to wild-type peptide (= 100) [13] | reactivity relative to the wild-type peptide [14] | reactivity relative to the wild-type peptide [15] | reactivity relative to the wild-type peptide [16] | ELISA absorbance relative to wild-type peptide (= 100) [17] | ELISA absorbance relative to wild-type peptide (= 100) [18] | ELISA absorbance relative to wild-type peptide (= 100) [19] | ELISA absorbance relative to wild-type peptide (= 100) [21] | also measured
B1 | 27 | 67 | 3.2 | 23 | 0.8 | 1.8 | 34 | ~50% | ~50% | ~50% | 6 | 44 | 100 | ~0.25 fraction of wild-type peptide | ~0.25 fraction of wild-type peptide | ~0.25 fraction of wild-type peptide | 55 | 100 | 27 | 56 | IC50 (read off the curve) [20]: ~0.6 µg; ELISA absorbance relative to wild-type peptide (= 100) [22]: 33
B2 | 26 | 39 | 2.5 | 13 | 0.3 | 2.6 | 20 | ~50% | ~50% | ~50% | 5 | 50 | 100 | ~0.25 fraction of wild-type peptide | ~0.25 fraction of wild-type peptide | ~0.25 fraction of wild-type peptide | 45 | 100 | 44 | 27 | Kd [23]: 0.19 nM; kon [23]: 210000 M⁻¹ s⁻¹; ELISA absorbance relative to wild-type peptide (= 100) [22]: 14
